{"source": "paper PMC3162612", "about": "“RssAB Signaling Coordinates Early Development of Surface Multicellularity in Serratia marcescens” (PLoS ONE, 2011)", "binders": {"B1": {"name": "poly histidine-tagged cytoplasmic region of RssA (domain or fragment)", "chain": "LRPLRQIARTISDRQPGNLSPINVSEQYQEIRPVVMEVNKLMARIDAANQREKRFMADAAHELRTPIAAVLAQLHLLTQVTEQQERREIIGDMQQGLDRAASLSRQLINLAKLEAEDFPLKIEAVDIYAEIGKCIAQHVPYALEKDVELSLDGSEDVVVSTDRRALIAIFTNLLDNALKYAPPGSRIEANIRSLAPLGCYITLRDNGPGVSEEHRSRLFERFYRVPGTQQTGSGLGLAIARNLADKIGAQLRVTEGLDDRGIGFIIDLPESYRPQTESEPRP", "notes": "RssA, inner membrane sensor kinase of the RssAB two-component system, Serratia marcescens CH-1; also called His-cRssA; cRssA; source: E. coli BL21(DE3)pLysS, recombinant protein for purification"}}, "molecular_target": "T1, GST-tagged non-phosphorylatable variant RssB D51E (Serratia marcescens, UniProt Q8GP20 1-219, D51E)", "T1 construct": "RssB, response regulator of the RssAB two-component system, Serratia marcescens CH-1, with D51E; plasmid pGST-RssB^D51E (pGEX-2T-rssB D51E); used to mimic unphosphorylated RssB; also called GST-RssB^D51E; source: E. coli BL21(DE3)pLysS, purified", "T1 sequence": "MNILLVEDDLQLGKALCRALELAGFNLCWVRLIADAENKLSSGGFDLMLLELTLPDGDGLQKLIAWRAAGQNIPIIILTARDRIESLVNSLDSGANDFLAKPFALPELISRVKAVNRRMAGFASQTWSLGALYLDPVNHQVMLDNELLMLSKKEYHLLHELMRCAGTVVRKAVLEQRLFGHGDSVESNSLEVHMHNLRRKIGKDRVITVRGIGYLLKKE", "assay": "pull-down; GST, GST-RssB or GST-RssB D51E pretreated with acetyl-phosphate, incubated with His-cRssA and glutathione sepharose-4B in interaction buffer (20 mM Tris-HCl pH 7.5, 10 mM MgCl2, 100 mM KCl), 4°C 1 hr; washed; SDS-PAGE, Coomassie stain and anti-hexa-histidine blot", "conditions": "both partners purified"}
{"binder": "B1", "values": [{"measurement": "fold His-cRssA pulled down relative to GST-RssB", "result": "~2", "unit": "fold"}]}
